In assay [1] the target is T1, mouse TIM-3 protein (Sino Biological Inc., catalog No. 51152-M08H) (mouse, UniProt Q8VIM0 20-191).
T1 construct: Bought protein; also called murine TIM-3
In words: direct ELISA with HRP-labeled AB12S3, plate coated with mouse TIM-3 at 1 ug/mL. Background: An ELISA detects its analyte on a solid surface through an enzyme-linked reagent.

Assay [2] concerns the target monkey TIM-3 (Sino Biological Inc., catalog No. 90312-C02H) (monkey). In words: direct ELISA with HRP-labeled AB12S3, plate coated with monkey TIM-3 at 1 ug/mL.
The target of assay [3] is T2, TIM3-Euk (TIM-3 reagent of the TIM-3/Gal9 binding assay kit) (UniProt Q8TDQ0 22-200, limits assumed, europium cryptate label (Euk), position not stated).
T2 construct: Kit reagent
In words: HTRF competition, blocking of TIM-3/Galectin-9 binding (competitor: Tag-Gal9). For orientation: TR-FRET usually uses a lanthanide donor and a delayed reading to cut background.

Assay [4] has as its target TIM-3 (His-tagged, used in the TIM-3/PtdSer competitive ELISA) (UniProt Q8TDQ0 22-200, limits assumed). Kind of assay: competitive ELISA, plate coated with PtdSer (phosphatidylserine, not a protein), His-tagged TIM-3 in solution with antibody, anti-6xHis-HRP.
In assay [5] the target is T3, human TIM-3 antigen (His-tagged TIM-3 extracellular domain expressed by Ampsource Biopharma Shanghai Inc.) (human, UniProt Q8TDQ0 22-202).
T3 construct: extracellular domain; also called TIM-3-His; not shown: His tag
In words: ELISA, plate coated with His-tagged human TIM-3 extracellular domain.

Assay [6] concerns the target T4, human TIM-4 (Sino Biological Inc., catalog No. 12161-H08H) (human, UniProt Q96H15 25-315).
T4 construct: Bought protein
T4 sequence (looked up): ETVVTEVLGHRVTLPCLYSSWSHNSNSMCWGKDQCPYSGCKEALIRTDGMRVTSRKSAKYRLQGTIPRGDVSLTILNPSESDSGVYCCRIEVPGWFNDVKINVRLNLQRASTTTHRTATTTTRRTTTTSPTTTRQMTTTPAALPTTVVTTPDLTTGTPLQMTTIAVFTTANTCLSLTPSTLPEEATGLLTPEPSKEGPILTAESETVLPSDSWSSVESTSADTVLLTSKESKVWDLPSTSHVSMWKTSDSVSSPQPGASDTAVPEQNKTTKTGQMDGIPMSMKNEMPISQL
In words: ELISA, plate coated with human TIM-4 at 1 ug/mL, detection with HRP-labeled goat anti-human IgG.

Assay [7] concerns the target T3, human TIM-3 antigen (His-tagged TIM-3 …). In words: BLI (ForteBio Octet) as stated; antibody captured by anti-human IgG Fc, antigen in solution, 1:1 model.
Assay [8] has the same target. In words: direct ELISA with HRP-labeled AB12S3, plate coated with human TIM-3 at 1 ug/mL.
The target in assay [9] is T5, human TIM-1 (Sino Biological Inc., catalog No. 11051-H08H1) (human, UniProt Q96D42 21-290).
T5 construct: Bought protein
T5 sequence (looked up): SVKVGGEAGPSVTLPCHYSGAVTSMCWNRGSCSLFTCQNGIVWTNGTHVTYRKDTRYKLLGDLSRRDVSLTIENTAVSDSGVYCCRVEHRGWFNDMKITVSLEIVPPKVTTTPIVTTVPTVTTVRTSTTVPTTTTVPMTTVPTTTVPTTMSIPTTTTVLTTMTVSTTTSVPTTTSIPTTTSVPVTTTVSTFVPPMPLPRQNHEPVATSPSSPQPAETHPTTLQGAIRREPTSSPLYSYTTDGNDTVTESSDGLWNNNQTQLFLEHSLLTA
Kind of assay: ELISA, plate coated with human TIM-1 at 1 ug/mL, detection with HRP-labeled goat anti-human IgG.

The target in assay [10] is T3, human TIM-3 antigen (His-tagged TIM-3 …). In words: ELISA, plate coated with His-tagged human TIM-3 ECD, goat anti-mouse IgG-HRP.
Assay [11] shares this target. In words: BLI (ForteBio Octet) as stated; antigen in solution, 1:1 model; capture of the murine antibody not described. A general note: BLI is a label-free optical method that tracks binding on a fibre tip over time.

Bounds are passed on as bounds.

B1: humanized anti-TIM-3 antibody AB12S3 (antibody, human IgG4 S228P, kappa, V domains shown)
VH: EVQLVQSGAEVKKPGASVKVSCKASGYTFTNYVMHWMRQAPGQRLEWIGYIDPDNDGIKYNEKIKGKATLTSDKSSSTAYMELSSLRSEDTAVYYCARDFGYVDWFPYWGQGTTVTVSS
VL: DIVMTQSPSSLSASVGDRVTITCKASQDVTTAVAWYQQKPGKAPKLLIYSASNRYIGVPDRFTGSGSGTDFTFTISSLQPEDIATYYCQQHYSIPPTFGGGTKVEIKR
notes: Human IgG4 S228P (EU) heavy chain and human kappa light chain
For the molecule B1, the binding result in [1], in assay [6] and in [9] was “no binding (tested: 10000 ng/mL)” each time. Moreover, the EC50 (read off the curve) – broadly, the concentration needed to bring the measured effect to its halfway point – in [2] is 0.05 µg/mL; in [5] it was ~0.004 µg/mL; in [8], ~0.008 µg/mL. The IC50 (commonly the concentration at which inhibition is half-maximal) in assay [3] came out at 0.202 µg/mL; in [4], 1.33 µg/mL. In assay [7], the Kd (usually the constant that tells how readily two partners part at equilibrium) was determined as 2.71 pM.

B2: humanized anti-TIM-3 antibody AB12S4 (antibody, human IgG4 S228P, kappa, V domains shown)
VH: EVQLVLSGAEVVKPGASVKMSCKASGYTFTNYVMHWMRQKPGQRLEWIGYIDPDNDGIKYNEKIKGKATLTSDKSSSTAYMELSSLRSEDSAVYYCARDFGYVDWFPYWGQGTTVTVSS
VL: DIVMTQSPSSMSTSVGDRVTITCKASQDVTTAVAWYQQKPGKSPKLLIYSASNRYIGVPDRFTGSGSGTDFTFTISSVQPEDIAVYYCQQHYSIPPTFGGGTNLEIKR
notes: as for B1
In the case of B2, the “EC50 (read off the curve)” value in [5] is ~0.004 µg/mL. Moreover, in assay [7], the Kd was < 1 pM; the dissociation rate constant (koff) (as a rule, the rate constant with which the complex falls apart) was < 1e-07 s⁻¹; the kon (in general, the second-order rate constant of association) was found to be 254000 M⁻¹ s⁻¹.

B3: humanized anti-TIM-3 antibody AB12S6 (antibody, V domains shown)
VH: QVQLQLSGAEVKKPGASVKVSCKASGYTFTNYVMHWVRQAPGQRLEWMGWIDPDNDGIKYSQKFQGRVTLTSDKSASTAYMELSSLRSEDTAVYYCARDFGYVDWFPYWGQGTLVTVSS
VL: DIQMTQSPSSMSASVGDRVTITCQASQDVTTALNWYQQKPGKSPKLLIYSASNLETGVPSRFSGSGSGTDFTFTISSLQPEDIATYYCQQHYSIPPTFGGGTNLEIK
In [7], B3 registered a Kd of 4.38 pM, a koff of 8.68e-07 s⁻¹ and a kon of 198000 M⁻¹ s⁻¹.

B4: humanized anti-TIM-3 antibody AB12S7 (antibody, V domains shown)
VH: EVQLQLSGAEVKKPGASVKVSCKASGYTFTNYVMHWMRQKPGQRLEWMGWIDPDNDGIKYSQKFQGRVTITRDKSSSTAYMELSSLRSEDTAVYYCARDFGYVDWFPYWGQGTLVTVSS
VL: DIVMTQSPSSLSASVGDRVTITCQASQDVTTALNWYQQKSGQSPKLLIYSASNLETGVPSRFSGSGSGTDFTFTISSLQPEDIATYYCQQHYSIPPTFGGGTNLEIK
B4: in [7], binding was put at a Kd of 3.44 pM, the koff is 7.66e-07 s⁻¹ and the kon stood at 223000 M⁻¹ s⁻¹.

B5: humanized anti-TIM-3 antibody AB12S5 (antibody, V domains shown)
VH: QVQLVQSGAEVKKPGASVKVSCKASGYTFTNYVMHWVRQAPGQRLEWMGWIDPDNDGIKYSQKFQGRVTITRDTSASTAYMELSSLRSEDTAVYYCARDFGYVDWFPYWGQGTTVTVSS
VL: DIQMTQSPSSLSASVGDRVTITCQASQDVTTALNWYQQKPGKAPKLLIYSASNLETGVPSRFSGSGSGTDFTFTISSLQPEDIATYYCQQHYSIPPTFGGGTKVEIK
notes: it was captured through anti-human IgG Fc
In [7], B5 returned a Kd of 4.82 pM, a koff of 6.32e-07 s⁻¹ and a kon of 131000 M⁻¹ s⁻¹.

B6: murine monoclonal antibody Mab22 (antibody, mouse IgG1, V domains shown)
VH: EVQLQLSGPELVKPGASVKMSCKASGYTFTNYVMHWMRQKPGQGLEWIGYIDPDNDGIKYNEKIKGKATLTSDKSSSTAYMELSSLTSEDSAVYYCARDFGYVDWFPYWGQGTLVTVSA
VL: DIVMTQSHKFMSTSVGNRVSITCKASQDVTTAVAWYQQKSGQSPKLLIYSASNRYIGVPDRFTGSGSGTDFTFTISSVQTEDLAVYYCQQHYSIPPTFGGGTNLEIK
notes: subtype identified as murine IgG1 (Kappa); purified from hybridoma supernatant on protein G; also called antibody secreted by hybridoma clone #22; murine antibody Mab22
Regarding B6, the concentration giving a half-maximal response (EC50) (usually the concentration giving half of the maximal effect) in assay [10] turned out to be 0.0063 µg/mL. Also, in [11], the Kd was < 1 pM, the off-rate (koff) is < 1e-07 s⁻¹ and the kon was 345000 M⁻¹ s⁻¹.

B7: control antibody AB12S1 (antibody, human IgG1, kappa, N297A, V domains shown)
VH: QVQLQQPGAELVKPGASVKMSCKASGYTFTSYNMHWIKQTPGQGLEWIGDIYPGNGDTSYNQKFKGKATLTADKSSSTVYMQLSSLTSEDSAVYYCARVGGAFPMDYWGQGTSVTVSS
VL: DIVLTQSPASLAVSLGQRATISCRASESVEYYGTSLMQWYQQKPGQPPKLLIYAASNVESGVPARFSGSGSGTDFSLNIHPVEEDDIAIYFCQQSRKDPSTFGGGTKLEIKR
notes: Variable regions derived from anti-TIM-3 antibody ABTIM3 of U.S. Pat. No. 9,605,070; also called positive control antibody AB12S1
For the molecule B7, the IC50 was found to be 0.259 µg/mL in [3] and 3.2 µg/mL in assay [4]. In addition, the “EC50 (read off the curve)” value in assay [5] was ~0.003 µg/mL.

The values are drawn from patent publication US20210238282A1 (AMPSOURCE BIOPHARMA SHANGHAI, published 2021).
